The results in this text go back to paper PMC12462484.

In experiment [1] the target is KSHV ORF74 with L169W, L258V and two C-terminal threonines deleted (apo construct) (Kaposi's Sarcoma-associated Herpesvirus (HHV-8)) (UniProt Q98146). Description: cryo-EM structure.
Experiment [2] addresses wild-type KSHV ORF74 expressed in HEK293T cells (Kaposi's Sarcoma-associated Herpesvirus (HHV-8)) (UniProt Q98146).

By stoichiometry N is commonly meant the number of molecules, sites or subunits per partner or assembly.

“KSHV ORF74 with L169W, L258V and two C-terminal threonines deleted (apo construct) (from UniProt Q98146 1-340) (receptor)” displayed a stoichiometry N in experiment [1] of 2. Regarding “Gαq subunit (Rluc8-fused, TRUPATH) (from UniProt P50148 1-359) (natural protein)”, the BRET2 (TRUPATH) G protein activation in HEK293T cells, Rluc8-Gαq / Gβ / GFP2-Gγ sensor, dose response to recombinant CXCL1: potency of CXCL1 in experiment [2] came to 6.7 pEC50.
